Measurements: article PMC7278352

Target: pre-formed paclitaxel-stabilized microtubules (tubulin isolated from porcine brain) (porcine) (UniProt P02550)
Assay: co-sedimentation; pre-formed paclitaxel-stabilized MTs (100 ug/ml tubulin) incubated 30 min at room temperature with 250 ug/ml protein in General tubulin buffer (80 mM PIPES, 0.5 mM EGTA, 2 mM MgCl2, pH 6.9) with 1 mM GTP and 5% glycerol; spun through a 60% glycerol cushion at 100,000 x g for 40 min; band intensity in pellet and supernatant on SDS-PAGE, 5 repeats

UniProt P02550, sequence (P02550 whole entry, looked up): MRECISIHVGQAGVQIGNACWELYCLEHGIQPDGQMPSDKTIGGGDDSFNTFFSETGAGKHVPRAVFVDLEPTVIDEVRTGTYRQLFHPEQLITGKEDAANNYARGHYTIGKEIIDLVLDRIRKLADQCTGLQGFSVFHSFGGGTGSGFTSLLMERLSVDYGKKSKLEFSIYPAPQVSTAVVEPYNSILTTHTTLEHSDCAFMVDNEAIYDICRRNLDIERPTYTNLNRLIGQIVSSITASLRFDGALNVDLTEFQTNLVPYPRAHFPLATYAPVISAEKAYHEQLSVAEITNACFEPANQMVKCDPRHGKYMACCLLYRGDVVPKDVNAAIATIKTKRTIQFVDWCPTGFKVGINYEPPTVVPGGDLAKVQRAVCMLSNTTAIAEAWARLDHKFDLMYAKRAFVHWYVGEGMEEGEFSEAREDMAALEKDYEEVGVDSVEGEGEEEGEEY

percent of protein pelleted with MTs: 78%
Substance: microtubule-associated protein fraction (MAPF)
